biological target: EPHB1 (UniProt P54762); test: phosphorylation enrichment, bacterial display (enrichment ratio); higher = better substrate or ligand; peptides without Tyr show the background
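Note: 11-residue human phosphosite peptides and single-mutation variants displayed on the E. coli surface, counted by deep sequencing, each peptide's frequency after selection divided by its frequency in the unselected input library; frequency after pTyr selection over input frequency; kinase dosed for 20-30% of maximal phosphorylation in three min.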

Sequence of EPHB1 (P54762 whole entry, looked up): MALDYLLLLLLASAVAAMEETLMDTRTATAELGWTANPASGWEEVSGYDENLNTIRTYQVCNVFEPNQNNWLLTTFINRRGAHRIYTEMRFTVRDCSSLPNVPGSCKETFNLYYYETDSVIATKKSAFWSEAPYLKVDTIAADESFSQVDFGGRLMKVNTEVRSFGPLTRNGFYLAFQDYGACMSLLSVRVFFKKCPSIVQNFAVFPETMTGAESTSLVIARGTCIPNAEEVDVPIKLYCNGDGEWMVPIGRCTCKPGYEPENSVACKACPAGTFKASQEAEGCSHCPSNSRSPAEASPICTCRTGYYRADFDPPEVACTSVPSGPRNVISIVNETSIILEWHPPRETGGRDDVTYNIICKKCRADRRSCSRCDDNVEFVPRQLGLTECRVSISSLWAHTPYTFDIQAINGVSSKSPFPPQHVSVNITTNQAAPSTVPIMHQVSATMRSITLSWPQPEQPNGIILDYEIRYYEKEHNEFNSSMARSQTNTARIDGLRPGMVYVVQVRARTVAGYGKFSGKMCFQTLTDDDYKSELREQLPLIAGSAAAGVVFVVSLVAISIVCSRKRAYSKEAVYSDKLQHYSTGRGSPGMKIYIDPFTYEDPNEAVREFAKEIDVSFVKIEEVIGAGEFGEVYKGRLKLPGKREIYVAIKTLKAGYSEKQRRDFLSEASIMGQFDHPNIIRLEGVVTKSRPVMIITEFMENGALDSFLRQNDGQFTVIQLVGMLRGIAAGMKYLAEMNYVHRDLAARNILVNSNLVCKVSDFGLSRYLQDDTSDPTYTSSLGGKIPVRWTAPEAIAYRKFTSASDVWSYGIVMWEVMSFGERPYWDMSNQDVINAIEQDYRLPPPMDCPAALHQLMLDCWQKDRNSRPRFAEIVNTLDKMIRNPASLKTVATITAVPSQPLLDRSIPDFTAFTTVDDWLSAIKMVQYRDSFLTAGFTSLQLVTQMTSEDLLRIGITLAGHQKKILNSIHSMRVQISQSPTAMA

First: PLEGKYEWQEV [CDKN1B_Y74]
Second: AKVKPYVNGTS [IBTK_Y1064]
The phosphorylation enrichment of the first is higher: 0.57 for the first, 0.41 for the second.

Compared with NLTVNYKKNLT [SQOR_Y259_I264T], LHAALYERKLL [TTLL5_Y542] is higher in phosphorylation enrichment: 0.429 for the first, 1.27 for the second.

Compared with TGSFTYEAVEL [MTMR14_Y462], VHNLDYYKKTT [FGFR3_Y647] is lower in phosphorylation enrichment: 6.56 for the first, 0.428 for the second.

Going from HLELNYKEDEF [MME_Y502_Y497H_YF] to ATPSQYMTFLH [DYNC2H1_Y2872_R2871Q], the phosphorylation enrichment falls from 0.594 to 0.593.

Compared with FNVLQYVVPEV [EIF3A_Y382], LDLSFYHTSSS [EMD_Y182_P183H_YF] is lower in phosphorylation enrichment: 0.933 for the first, 0.845 for the second.

Going from PLFGEYFTLQI [TP53_Y327_D324Y_YF] to DMGAQYAAASP [ARID1B_Y483], the phosphorylation enrichment falls from 2.69 to 0.486.

First: AAVDTYCRHNY [HLA-DRB1_Y107]
Second: IRKDLYANNVM [ACTA1_Y296]
The phosphorylation enrichment of the first is lower: 0.507 for the first, 0.605 for the second.

First: SPPILYSFFLD [FCRL6_Y239_YF]
Second: SARFRYLVAEK [LDHB_Y173_M175V]
The phosphorylation enrichment of the first is higher: 2.85 for the first, 0.351 for the second.

First: CEHRGHLYLAI [TEK_Y897_Y897H]
Second: MSFDRYMAICH [OR2A5_Y123_YF]
The phosphorylation enrichment of the first is lower: 0.665 for the first, 0.868 for the second.

Compared with DYYDLYGGQKF [PTPN11_Y66_E69Q], YIGVTYKNEED [PDGFRA_Y993] is lower in phosphorylation enrichment: 8.34 for the first, 0.602 for the second.

Going from EKQLLYLENKT [FRK_Y132_S133L] to NIQKKYYRAIL [CHD7_Y1217], the phosphorylation enrichment falls from 0.567 to 0.346.

Compared with AGQEDYDRLRS [RHOA_Y66_P71S], WCSNDYLGMSR [ALAS2_Y199] is higher in phosphorylation enrichment: 0.582 for the first, 0.959 for the second.

First: TVLWRYTGTRP [UGT1A1_Y337]
Second: FQGGTYSKAST [FGG_Y380_YF]
The phosphorylation enrichment of the first is higher: 0.432 for the first, 0.377 for the second.

Going from SAGSSYSISGI [PAX5_Y179] to ICGVSYDEFRF [CFTR_Y512_F508C_YF], the phosphorylation enrichment rises from 0.368 to 0.663.

First: VTAVAYRLAEQ [HK1_Y461]
Second: RPPELYALMSD [ZAP70_Y569_C564R]
The phosphorylation enrichment of the first is lower: 0.47 for the first, 14.6 for the second.

Compared with KRAIGHFSATS [FAM120A_Y327_Y327H_YF], CTTIDYNFMCN [TP53_Y234_H233D_YF] is higher in phosphorylation enrichment: 0.407 for the first, 0.474 for the second.

For KLVQLYVVCTK [BTK_Y461_G462V], the phosphorylation enrichment was 0.809.

system: c-Abl (mouse); test: as above

Compared with PLEGKYEWQEV [CDKN1B_Y74], AKVKPYVNGTS [IBTK_Y1064] is lower in phosphorylation enrichment: 0.816 for the first, 0.778 for the second.

Compared with NLTVNYKKNLT [SQOR_Y259_I264T], LHAALYERKLL [TTLL5_Y542] is lower in phosphorylation enrichment: 1.03 for the first, 0.934 for the second.

Going from TGSFTYEAVEL [MTMR14_Y462] to VHNLDYYKKTT [FGFR3_Y647], the phosphorylation enrichment falls from 0.801 to 0.443.

First: HLELNYKEDEF [MME_Y502_Y497H_YF]
Second: ATPSQYMTFLH [DYNC2H1_Y2872_R2871Q]
The phosphorylation enrichment of the first is lower: 0.749 for the first, 0.885 for the second.

Going from FNVLQYVVPEV [EIF3A_Y382] to LDLSFYHTSSS [EMD_Y182_P183H_YF], the phosphorylation enrichment falls from 5.16 to 0.644.

Compared with PLFGEYFTLQI [TP53_Y327_D324Y_YF], DMGAQYAAASP [ARID1B_Y483] is lower in phosphorylation enrichment: 4.41 for the first, 0.652 for the second.

Compared with AAVDTYCRHNY [HLA-DRB1_Y107], IRKDLYANNVM [ACTA1_Y296] is lower in phosphorylation enrichment: 0.755 for the first, 0.576 for the second.

Going from SPPILYSFFLD [FCRL6_Y239_YF] to SARFRYLVAEK [LDHB_Y173_M175V], the phosphorylation enrichment falls from 0.901 to 0.569.

Going from CEHRGHLYLAI [TEK_Y897_Y897H] to MSFDRYMAICH [OR2A5_Y123_YF], the phosphorylation enrichment rises from 0.676 to 0.69.

First: DYYDLYGGQKF [PTPN11_Y66_E69Q]
Second: YIGVTYKNEED [PDGFRA_Y993]
The phosphorylation enrichment of the first is higher: 0.814 for the first, 0.666 for the second.

First: EKQLLYLENKT [FRK_Y132_S133L]
Second: NIQKKYYRAIL [CHD7_Y1217]
The phosphorylation enrichment of the first is lower: 0.41 for the first, 0.563 for the second.

Compared with AGQEDYDRLRS [RHOA_Y66_P71S], WCSNDYLGMSR [ALAS2_Y199] is lower in phosphorylation enrichment: 0.741 for the first, 0.6 for the second.

Compared with TVLWRYTGTRP [UGT1A1_Y337], FQGGTYSKAST [FGG_Y380_YF] is lower in phosphorylation enrichment: 0.633 for the first, 0.446 for the second.

First: SAGSSYSISGI [PAX5_Y179]
Second: ICGVSYDEFRF [CFTR_Y512_F508C_YF]
The phosphorylation enrichment of the first is lower: 0.417 for the first, 1.03 for the second.

First: VTAVAYRLAEQ [HK1_Y461]
Second: RPPELYALMSD [ZAP70_Y569_C564R]
The phosphorylation enrichment of the first is lower: 0.509 for the first, 1.81 for the second.

Going from KRAIGHFSATS [FAM120A_Y327_Y327H_YF] to CTTIDYNFMCN [TP53_Y234_H233D_YF], the phosphorylation enrichment rises from 0.402 to 1.04.

For KLVQLYVVCTK [BTK_Y461_G462V], the phosphorylation enrichment was 0.928.

biological target: EPHB2 (UniProt P29323); test: as above
Sequence (P29323 whole entry, looked up): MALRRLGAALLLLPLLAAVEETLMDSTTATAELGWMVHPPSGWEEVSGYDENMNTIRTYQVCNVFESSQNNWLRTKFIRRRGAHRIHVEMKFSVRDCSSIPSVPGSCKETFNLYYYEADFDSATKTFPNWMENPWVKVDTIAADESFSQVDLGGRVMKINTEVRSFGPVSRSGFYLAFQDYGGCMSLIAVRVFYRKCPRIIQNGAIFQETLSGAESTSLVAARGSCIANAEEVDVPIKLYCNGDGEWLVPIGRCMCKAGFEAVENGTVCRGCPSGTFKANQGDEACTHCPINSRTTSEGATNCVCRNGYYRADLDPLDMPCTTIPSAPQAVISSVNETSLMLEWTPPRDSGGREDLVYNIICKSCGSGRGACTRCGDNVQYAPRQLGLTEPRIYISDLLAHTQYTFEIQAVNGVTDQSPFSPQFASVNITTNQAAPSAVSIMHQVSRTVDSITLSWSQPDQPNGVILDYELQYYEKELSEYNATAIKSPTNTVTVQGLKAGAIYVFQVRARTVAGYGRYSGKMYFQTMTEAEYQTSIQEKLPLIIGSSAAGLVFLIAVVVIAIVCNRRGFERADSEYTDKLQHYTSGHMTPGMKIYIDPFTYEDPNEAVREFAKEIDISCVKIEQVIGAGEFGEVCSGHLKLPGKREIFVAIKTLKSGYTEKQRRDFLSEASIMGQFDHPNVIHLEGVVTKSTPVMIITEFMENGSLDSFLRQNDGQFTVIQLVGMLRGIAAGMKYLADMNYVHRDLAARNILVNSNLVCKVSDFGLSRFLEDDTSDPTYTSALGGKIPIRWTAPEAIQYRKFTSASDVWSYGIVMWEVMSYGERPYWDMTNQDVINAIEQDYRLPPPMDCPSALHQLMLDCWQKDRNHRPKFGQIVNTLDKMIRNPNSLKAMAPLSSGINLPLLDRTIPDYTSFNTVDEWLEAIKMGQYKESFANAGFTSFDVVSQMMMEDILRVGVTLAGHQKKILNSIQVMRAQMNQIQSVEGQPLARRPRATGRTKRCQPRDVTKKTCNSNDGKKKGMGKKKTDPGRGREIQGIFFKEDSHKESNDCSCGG

First: PLEGKYEWQEV [CDKN1B_Y74]
Second: AKVKPYVNGTS [IBTK_Y1064]
The phosphorylation enrichment of the first is higher: 0.572 for the first, 0.419 for the second.

Going from NLTVNYKKNLT [SQOR_Y259_I264T] to LHAALYERKLL [TTLL5_Y542], the phosphorylation enrichment rises from 0.629 to 0.798.

Going from TGSFTYEAVEL [MTMR14_Y462] to VHNLDYYKKTT [FGFR3_Y647], the phosphorylation enrichment falls from 3.89 to 0.474.

Going from HLELNYKEDEF [MME_Y502_Y497H_YF] to ATPSQYMTFLH [DYNC2H1_Y2872_R2871Q], the phosphorylation enrichment falls from 0.504 to 0.473.

First: FNVLQYVVPEV [EIF3A_Y382]
Second: LDLSFYHTSSS [EMD_Y182_P183H_YF]
The phosphorylation enrichment of the first is higher: 1.02 for the first, 0.676 for the second.

First: PLFGEYFTLQI [TP53_Y327_D324Y_YF]
Second: DMGAQYAAASP [ARID1B_Y483]
The phosphorylation enrichment of the first is higher: 2.42 for the first, 0.552 for the second.

AAVDTYCRHNY [HLA-DRB1_Y107] and IRKDLYANNVM [ACTA1_Y296] are the same in phosphorylation enrichment: 0.527 for the first, 0.527 for the second.

Compared with SPPILYSFFLD [FCRL6_Y239_YF], SARFRYLVAEK [LDHB_Y173_M175V] is lower in phosphorylation enrichment: 1.97 for the first, 0.486 for the second.

First: CEHRGHLYLAI [TEK_Y897_Y897H]
Second: MSFDRYMAICH [OR2A5_Y123_YF]
The phosphorylation enrichment of the first is lower: 0.441 for the first, 0.669 for the second.

Compared with DYYDLYGGQKF [PTPN11_Y66_E69Q], YIGVTYKNEED [PDGFRA_Y993] is lower in phosphorylation enrichment: 8.29 for the first, 0.539 for the second.

Compared with EKQLLYLENKT [FRK_Y132_S133L], NIQKKYYRAIL [CHD7_Y1217] is lower in phosphorylation enrichment: 0.44 for the first, 0.375 for the second.

Compared with AGQEDYDRLRS [RHOA_Y66_P71S], WCSNDYLGMSR [ALAS2_Y199] is higher in phosphorylation enrichment: 0.513 for the first, 0.752 for the second.

Compared with TVLWRYTGTRP [UGT1A1_Y337], FQGGTYSKAST [FGG_Y380_YF] is lower in phosphorylation enrichment: 0.582 for the first, 0.452 for the second.

Compared with SAGSSYSISGI [PAX5_Y179], ICGVSYDEFRF [CFTR_Y512_F508C_YF] is higher in phosphorylation enrichment: 0.347 for the first, 0.642 for the second.

Going from VTAVAYRLAEQ [HK1_Y461] to RPPELYALMSD [ZAP70_Y569_C564R], the phosphorylation enrichment rises from 0.424 to 3.94.

Compared with KRAIGHFSATS [FAM120A_Y327_Y327H_YF], CTTIDYNFMCN [TP53_Y234_H233D_YF] is higher in phosphorylation enrichment: 0.332 for the first, 0.651 for the second.

Sequence KLVQLYVVCTK [BTK_Y461_G462V] has a phosphorylation enrichment of 0.523.

system: c-Src; test: as above

First: PLEGKYEWQEV [CDKN1B_Y74]
Second: AKVKPYVNGTS [IBTK_Y1064]
The phosphorylation enrichment of the first is higher: 0.465 for the first, 0.412 for the second.

Going from NLTVNYKKNLT [SQOR_Y259_I264T] to LHAALYERKLL [TTLL5_Y542], the phosphorylation enrichment falls from 0.502 to 0.479.

First: TGSFTYEAVEL [MTMR14_Y462]
Second: VHNLDYYKKTT [FGFR3_Y647]
The phosphorylation enrichment of the first is higher: 2.45 for the first, 0.371 for the second.

Going from HLELNYKEDEF [MME_Y502_Y497H_YF] to ATPSQYMTFLH [DYNC2H1_Y2872_R2871Q], the phosphorylation enrichment rises from 0.43 to 2.62.

First: FNVLQYVVPEV [EIF3A_Y382]
Second: LDLSFYHTSSS [EMD_Y182_P183H_YF]
The phosphorylation enrichment of the first is lower: 0.58 for the first, 0.879 for the second.

First: PLFGEYFTLQI [TP53_Y327_D324Y_YF]
Second: DMGAQYAAASP [ARID1B_Y483]
The phosphorylation enrichment of the first is higher: 8.29 for the first, 0.504 for the second.

Going from AAVDTYCRHNY [HLA-DRB1_Y107] to IRKDLYANNVM [ACTA1_Y296], the phosphorylation enrichment falls from 0.461 to 0.419.

Compared with SPPILYSFFLD [FCRL6_Y239_YF], SARFRYLVAEK [LDHB_Y173_M175V] is lower in phosphorylation enrichment: 3.23 for the first, 0.449 for the second.

First: CEHRGHLYLAI [TEK_Y897_Y897H]
Second: MSFDRYMAICH [OR2A5_Y123_YF]
The phosphorylation enrichment of the first is lower: 0.377 for the first, 0.497 for the second.

Going from DYYDLYGGQKF [PTPN11_Y66_E69Q] to YIGVTYKNEED [PDGFRA_Y993], the phosphorylation enrichment falls from 6.47 to 0.461.

Going from EKQLLYLENKT [FRK_Y132_S133L] to NIQKKYYRAIL [CHD7_Y1217], the phosphorylation enrichment rises from 0.356 to 0.371.

Going from AGQEDYDRLRS [RHOA_Y66_P71S] to WCSNDYLGMSR [ALAS2_Y199], the phosphorylation enrichment rises from 0.609 to 0.843.

Going from TVLWRYTGTRP [UGT1A1_Y337] to FQGGTYSKAST [FGG_Y380_YF], the phosphorylation enrichment rises from 0.344 to 0.41.

First: SAGSSYSISGI [PAX5_Y179]
Second: ICGVSYDEFRF [CFTR_Y512_F508C_YF]
The phosphorylation enrichment of the first is lower: 0.457 for the first, 1.49 for the second.

Compared with VTAVAYRLAEQ [HK1_Y461], RPPELYALMSD [ZAP70_Y569_C564R] is higher in phosphorylation enrichment: 0.385 for the first, 1.84 for the second.

Going from KRAIGHFSATS [FAM120A_Y327_Y327H_YF] to CTTIDYNFMCN [TP53_Y234_H233D_YF], the phosphorylation enrichment rises from 0.387 to 0.874.

KLVQLYVVCTK [BTK_Y461_G462V] showed a phosphorylation enrichment of 0.486.

— the supplement of paper PMC10065799, “High-throughput profiling of sequence recognition by tyrosine kinases and SH2 domains using bacterial peptide display” (eLife, 2023)
